Reference: the supplement of paper PMC7125110
± gives the standard error. For some of these results: Variants at the floor of the assay were thinned out.

B1: glmS ribozyme (parent)
chain: AUAAAAGCGCCAGAACUACAGAAAUGUAGUUGACGAGGAGGAGGUUUAUCGAAUUUUCGGCGGAUGCCUCCAAA

Columns and labels:
Conditions in all cases: with glucosamine-6-phosphate
glucosamine-6-phosphate [1] = variants of: B1; test: kcat; higher = faster cleavage; RNA array
How it was run: (§1)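 Tiles bearing barcoded ribozyme variants, transcribed in situ by E. coli RNA polymerase on sequenced MiSeq chips, were imaged over ~14 h at 37 °C using a hybridised Cy3 probe. Glucosamine-6-phosphate was supplied at 40 μM to 10 mM in HEPES/KCl/Mg(OAc)2 buffer. kobs came from one- or two-exponential decay fits to normalised per-tile medians, and weighted Michaelis–Menten fits then provided kcat and KM.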

glucosamine-6-phosphate [2] = variants of: B1; test: self-cleavage kobs at 40 uM GlcN6P; higher = faster cleavage; RNA array
How it was run: as §1

glucosamine-6-phosphate [3] = variants of: B1; test: self-cleavage kobs at 640 uM GlcN6P; higher = faster cleavage; RNA array
How it was run: as §1

glucosamine-6-phosphate [4] = variants of: B1; test: self-cleavage kobs at 2500 uM GlcN6P; higher = faster cleavage; RNA array
How it was run: as §1

glucosamine-6-phosphate [5] = variants of: B1; test: self-cleavage kobs at 10000 uM GlcN6P; higher = faster cleavage; RNA array
How it was run: as §1

glucosamine-6-phosphate [6] = variants of: B1; test: KM; higher = weaker cofactor use; RNA array
How it was run: as §1

glucosamine-6-phosphate [7] = variants of: B1; test: self-cleavage kobs at 160 uM GlcN6P; higher = faster cleavage; RNA array
How it was run: as §1

Variant	kcat (glucosamine-6-phosphate [1]) [s⁻¹]	self-cleavage kobs at 40 uM GlcN6P (glucosamine-6-phosphate [2]) [s⁻¹]	self-cleavage kobs at 640 uM GlcN6P (glucosamine-6-phosphate [3]) [s⁻¹]	self-cleavage kobs at 2500 uM GlcN6P (glucosamine-6-phosphate [4]) [s⁻¹]	self-cleavage kobs at 10000 uM GlcN6P (glucosamine-6-phosphate [5]) [s⁻¹]	KM (glucosamine-6-phosphate [6]) [µM]	self-cleavage kobs at 160 uM GlcN6P (glucosamine-6-phosphate [7]) [s⁻¹]
A14U C50G C68A	7.35e-05 ± 2e-05	5.1e-05 ± 1.3e-05	0.000122 ± 2.5e-05	7.66e-05 ± 2.9e-05	5.56e-05 ± 1.5e-05	–	–
A14C U57A	0.00019 ± 1.7e-05	–	–	3.61e-05 ± 1.6e-05	9.25e-05 ± 2.2e-05	–	–
A14G C61U	3.27e-05 ± 1.8e-06	–	–	2.91e-05 ± 9.3e-06	3.02e-05 ± 6.3e-06	592 ± 240	–
A14U C71A	0.00123 ± 0.0004	5.26e-05 ± 9.6e-06	0.00027 ± 4.3e-05	0.000647 ± 8.4e-05	0.00114 ± 0.00019	2040 ± 970	8.35e-05 ± 1.2e-05
A14G G43A	0.000321 ± 4.1e-05	< 1e-05	4.36e-05 ± 1.3e-05	0.000101 ± 2.2e-05	0.000222 ± 3.1e-05	4730 ± 1200	–
A14G A33G G37U	< 1e-05	< 1e-05	–	–	–	–	< 1e-05
A14U	0.0182 ± 0.0048	0.000298 ± 5.5e-06	0.00328 ± 0.00015	0.00942 ± 0.00041	0.0143 ± 0.00047	2730 ± 850	0.00073 ± 3e-05
A14G	0.0996 ± 0.0091	0.00231 ± 4.7e-05	0.0249 ± 0.0012	0.0558 ± 0.0042	0.0902 ± 0.0048	1720 ± 180	0.00764 ± 0.00054
A14C U30G	0.00408 ± 0.001	5.32e-05 ± 1.3e-05	0.000417 ± 7.1e-05	0.00127 ± 0.00034	0.00267 ± 0.00036	5380 ± 1800	0.000107 ± 2e-05
A14G U57C	0.000646 ± 0.00012	–	0.000142 ± 1.8e-05	0.000276 ± 4.7e-05	0.000577 ± 0.0001	2530 ± 740	3.29e-05 ± 1.4e-05
A14G A64C	0.000278 ± 1.8e-05	–	0.000118 ± 1.4e-05	0.000217 ± 3.3e-05	0.000247 ± 3e-05	906 ± 140	–
A14C U31A A64C	1.75e-05 ± 3.8e-06	–	–	–	–	–	< 1e-05
A14G U47A	0.00972 ± 0.0015	0.00113 ± 0.00022	0.00942 ± 0.0021	0.00943 ± 0.002	0.00772 ± 0.0019	275 ± 78	0.0041 ± 0.0011
A14G G51A	1.48e-05 ± 1.8e-06	–	–	–	–	–	–
A14C U56C	0.000932 ± 0.00029	–	0.00014 ± 1.8e-05	0.000275 ± 4.5e-05	0.000754 ± 0.00012	4280 ± 2000	3.09e-05 ± 1.5e-05
